The values that follow come from paper PMC5017703, “The Neurite Outgrowth Inhibitory Nogo-A-Δ20 Region Is an Intrinsically Disordered Segment Harbouring Three Stretches with Helical Propensity” (PLoS ONE, 2016).

The target in data set [1] is S1PR2 ECL2 peptide ECL2 (Homo sapiens) (UniProt O95136). Kind of data set: MST. The settings on record: cited from earlier work.
Data set [2] has as its target S1PR2 ECL3 peptide ECL3 (Homo sapiens) (UniProt O95136). Description: MST. The settings on record: cited from earlier work.
Data set [3] deals with the molecule itself. Kind of data set: pulsed field gradient NMR diffusion; Nogo-A-Δ20 at 30 μM or 560 μM, without or with TCEP (5 mM or 2 mM), pH 7.4, 6°C; diffusion coefficients compared.

Regarding Nogo-A-Δ20 Δ20 (from UniProt Q9JK11), the Kd (commonly the free concentration of one partner at which half of the binding sites on the other are occupied at equilibrium, for simple one-to-one binding) in data set [1] is 280 nM; in data set [2], 350 nM.

B1: Nogo-A-Δ20 (residues 544–725 of the rat Nogo-A sequence) (domain or fragment, UniProt Q9JK11-1 544-725, looked up)
chain: TGTKIAYETKVDLVQTSEAIQESLYPTAQLCPSFEEAEATPSPVLPDIVMEAPLNSLLPSAGASVVQPSVSPLEAPPPVSYDSIKLEPENPPPYEEAMNVALKALGTKEGIKEPESFNAAVQETEAPYISIACDLIKETKLSTEPSPDFSNYSEIAKFEKSVPEHAELVEDSSPESEPVDLF
notes: Nogo-A (reticulon 4-A), rat, 1163 residues; Nogo-A-Δ20 region, residues 544-725 (182 residues), numbered as in the rat Nogo-A protein; the T7-tag lies between the N-terminal His6-tag and Nogo-A-Δ20; The N-terminal His6-tag was removed with thrombin; also called 15N-labelled Nogo-A-Δ20; [13C, 15N]-Nogo-A-Δ20; not shown: His6, N-terminal, cleaved; T7-tag, N-terminal, kept; His6, C-terminal, kept
On to B1, for which, in data set [3], the binding result is listed as “binds”.
